Experimental data: the Immune Epitope Database (IEDB)

Columns and labels:
HLA-B*14:02 = experiment: IEDB peptide-MHC binding, purified MHC/competitive/fluorescence; ≥ and ≤ were set here for values at or beyond the usual limits of such assays; conditions: source organism: Horsepox virus
HLA-A*01:01 = experiment: IEDB peptide-MHC binding, purified MHC/direct/fluorescence; filed as Kd, often an IC50 or EC50 that approximates it; ≥ and ≤ were set here for values at or beyond the usual limits of such assays; conditions: source organism: Camelpox virus CMS
HLA-A*02:01 = experiment: as above
HLA-A*03:01 = experiment: as above
HLA-A*11:01 = experiment: as above; conditions: source organism: Camelpox virus CMS
HLA-A*26:01 [1] = experiment: as above; conditions: source organism: Variola virus
HLA-A*31:01 = experiment: as above; conditions: source organism: Camelpox virus CMS
HLA-A*69:01 [2] = experiment: as above; conditions: source organism: Camelpox virus CMS
HLA-B*07:02 = experiment: as above; conditions: source organism: Camelpox virus CMS
HLA-B*08:01 = experiment: as above; conditions: source organism: Variola virus
HLA-B*08:02 = experiment: as above; conditions: source organism: Variola virus
HLA-B*15:01 [3] = experiment: as above; conditions: source organism: Camelpox virus CMS
HLA-B*15:17 = experiment: as above; conditions: source organism: Camelpox virus CMS
HLA-B*18:01 [4] = experiment: as above; conditions: source organism: Camelpox virus CMS
HLA-B*27:05 = experiment: as above; conditions: source organism: Camelpox virus CMS
HLA-B*40:01 = experiment: as above; conditions: source organism: Camelpox virus CMS
HLA-B*46:01 [5] = experiment: as above; conditions: source organism: Camelpox virus CMS
HLA-B*48:01 = experiment: as above; conditions: source organism: Camelpox virus CMS
HLA-B*51:01 [6] = experiment: as above; conditions: source organism: Camelpox virus CMS
HLA-B*57:01 [7] = experiment: as above; conditions: source organism: Camelpox virus CMS
HLA-B*58:01 = experiment: as above; conditions: source organism: Camelpox virus CMS
HLA-C*05:01 = experiment: as above; conditions: source organism: Vaccinia virus WR
HLA-A*32:15 = experiment: IEDB peptide-MHC binding, purified MHC/competitive/fluorescence; filed as Kd, often an IC50 or EC50 that approximates it; ≥ and ≤ were set here for values at or beyond the usual limits of such assays; conditions: source organism: Vaccinia virus WR
HLA-A*68:23 = experiment: as above; conditions: source organism: Vaccinia virus WR
HLA-B*15:09 = experiment: as above; conditions: source organism: Vaccinia virus WR
HLA-B*15:42 = experiment: as above; conditions: source organism: Vaccinia virus WR
HLA-B*39:01 = experiment: as above
HLA-B*45:06 = experiment: as above; conditions: source organism: Vaccinia virus WR
HLA-A*02:11 = experiment: IEDB peptide-MHC binding, purified MHC/direct/fluorescence; filed as Kd, often an IC50 or EC50 that approximates it; ≥ and ≤ were set here for values at or beyond the usual limits of such assays; conditions: source organism: Zaire ebolavirus
HLA-A*29:02 = experiment: as above; conditions: source organism: Zaire ebolavirus
HLA-A*68:02 = experiment: as above; conditions: source organism: Zaire ebolavirus
HLA-A*25:01 = experiment: IEDB peptide-MHC binding, purified MHC/competitive/fluorescence; filed as Kd, often an IC50 or EC50 that approximates it; ≥ and ≤ were set here for values at or beyond the usual limits of such assays; conditions: source organism: Zaire ebolavirus
HLA-A*26:01 [8] = experiment: as above; conditions: source organism: Zaire ebolavirus
HLA-A*69:01 [9] = experiment: as above; conditions: source organism: Zaire ebolavirus
HLA-A*80:01 = experiment: as above; conditions: source organism: Zaire ebolavirus
HLA-B*15:01 [10] = experiment: as above; conditions: source organism: Zaire ebolavirus
HLA-B*18:01 [11] = experiment: as above; conditions: source organism: Zaire ebolavirus
HLA-B*27:03 = experiment: as above; conditions: source organism: Zaire ebolavirus
HLA-B*46:01 [12] = experiment: as above; conditions: source organism: Zaire ebolavirus
HLA-B*51:01 [13] = experiment: as above; conditions: source organism: Zaire ebolavirus
HLA-B*57:01 [14] = experiment: as above; conditions: source organism: Zaire ebolavirus
[15] = source organism: Camelpox virus CMS
[16] = source organism: Zaire ebolavirus

With MPAYIRNTL the IC50 (HLA-B*14:02) was 0.453 µM, the Kd (HLA-A*01:01) was at least 20 µM and the Kd (HLA-A*02:01; [15]) was at least 20 µM. For the same sequence, the Kd (HLA-A*03:01; [15]) was at least 20 µM, the Kd (HLA-A*11:01) was at least 20 µM and the Kd (HLA-A*26:01 [1]) was 6.95 µM. The Kd (HLA-A*31:01) was at least 20 µM, the Kd (HLA-A*69:01 [2]) was at most 0.001 µM and the Kd (HLA-B*07:02) was 0.0066 µM. For the same sequence, the Kd (HLA-B*08:01) was 0.008 µM, the Kd (HLA-B*08:02) was 1.37 µM and the Kd (HLA-B*15:01 [3]) was at least 20 µM. The Kd (HLA-B*15:17) was at least 20 µM, the Kd (HLA-B*18:01 [4]) was 2.82 µM and the Kd (HLA-B*27:05) was at least 20 µM. It also gave a Kd (HLA-B*40:01) of at least 20 µM, a Kd (HLA-B*46:01 [5]) of at least 20 µM and a Kd (HLA-B*48:01) of 1.52 µM. The Kd (HLA-B*51:01 [6]) was 0.676 µM, the Kd (HLA-B*57:01 [7]) was at least 20 µM and the Kd (HLA-B*58:01) was at least 20 µM. The Kd (HLA-C*05:01) was at least 20 µM, the Kd (HLA-A*32:15) was 0.0636 µM and the Kd (HLA-A*68:23) was 0.0009 µM. The Kd (HLA-B*15:09) was at least 20 µM, the Kd (HLA-B*15:42) was at least 5 µM and the Kd (HLA-B*39:01; source organism: Vaccinia virus WR) was 0.0364 µM. It also gave a Kd (HLA-B*45:06) of at least 5 µM.

SLTDRELLL was tested, and the Kd (HLA-A*02:01; source organism: Sudan ebolavirus - Uganda (2000)) was 0.0013 µM, the Kd (HLA-A*02:11) was at least 20 µM and the Kd (HLA-A*03:01; [16]) was at least 20 µM. The Kd (HLA-A*29:02) was at least 20 µM, the Kd (HLA-A*68:02) was at least 20 µM and the Kd (HLA-A*25:01) was at least 20 µM. The Kd (HLA-A*26:01 [8]) was at least 20 µM, the Kd (HLA-A*69:01 [9]) was at least 20 µM and the Kd (HLA-A*80:01) was at least 20 µM. It also gave a Kd (HLA-B*15:01 [10]) of at least 20 µM, a Kd (HLA-B*18:01 [11]) of at least 20 µM and a Kd (HLA-B*27:03) of at least 20 µM. It also gave a Kd (HLA-B*39:01; [16]) of at least 20 µM, a Kd (HLA-B*46:01 [12]) of at least 20 µM and a Kd (HLA-B*51:01 [13]) of at least 20 µM. For the same sequence, the Kd (HLA-B*57:01 [14]) was at least 20 µM.
